The data set is described as follows: yeast display, Sf9 membrane polyspecificity reagent, FACS + sequencing; frameworks hold sequencing errors. Put shortly:
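Sorting gates, low and high (top ~1%), were placed on anti-HA fluorescence to track expression and on streptavidin fluorescence to track reagent binding. A clone's polyreactivity label is taken from the gate it came out of. The reagent was 10% biotinylated, detergent-solubilized Sf9 membrane, applied for 1 hour at 4 °C to galactose-induced yeast display cells.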
With “QVQLVESGGGLVQAGGSLRLSCAASGLTFGTNAMGWYRQAPGKERELVAAISTSSGSTYYADSVKGRFTISRDNAKNTVYLQMNSLKPEDTAVYYCAAVTVTKLSYYRYYYWGQGTQVTVSS”, the “polyreactivity (PSR sort gate)” value is “low polyreactivity”.
In the case of “QVQLVESGGGLVQAGGSLRLSCAASGLTFGVYAMGWYRPAPGKERELVAAITATGGSTYYADSVKGRFTISRDNAKNTVYLQMNSLKPEDTAVYYCAKPDFYRMGYWGQGTQVTVSS”, the “polyreactivity (PSR sort gate)” value was “low polyreactivity”.
Regarding “QVQLVESGGGLVQAGGSLRLSCAASGLTFGWYAMGWYRQAPRKERELVAAISWSGSTTYYADSVKGRFTISRDNAKNTVYLQMNSLKPEDTAVYYCAADVSTRPYGYYYWGQGTQVTVSS”, the “polyreactivity (PSR sort gate)” value is recorded as “high polyreactivity”.
As for “QVQLVESGGGLVQAGGSLRLSCAASGLTFHPYAMGWYRQAPGKERELVAAISSRGTSTYYADSVKGRFTISRDNAKNTVYLQMNSLKPEDTAVYYCAARYRLYYYFRFDWGQGTQVTVSS”, the “polyreactivity (PSR sort gate)” value is “high polyreactivity”.
“QVQLVESGGGLVQAGGSLRLSCAASGLTFHSYAMGWYRQAPGKERELVAAINYSGGRTDYADSVKGRFTISRDNALKSVYLQMNSLQPADTAVYFCAAQRASAYYCGQGTQVTVSS”: the “polyreactivity (PSR sort gate)” value was “high polyreactivity”.
In the case of “QVQLVESGGGLVQAGGSLRLSCAASGLTFIEYAMGWYRQAPGKERELVAAISSGGRTYYADSVKGRFTISRDNPKNTVYLQMNSLKPEDTAVYYCNDRGYRRWYNYWGQGTQVTVSS”, the “polyreactivity (PSR sort gate)” value is given as “high polyreactivity”.
Regarding “QVQLVESGGGLVQAGGSLRLSCAASGLTFIINDMGWYRQAPGKERELVAGITNGGSTYADSVKGRFTISRDNAKNTVYLQMNCLKPEDTAVYYCAVPWYDFARSIQVDEYDYWGQGTQVTVSS”, the “polyreactivity (PSR sort gate)” value was “low polyreactivity”.
“QVQLVESGGGLVQAGGSLRLSCAASGLTFIKYAMGWYRQAPGKERELVADITSSGGTTYYADSVKGRFTISRDNAKNTVYLQMNSLKPEDTAVYYCAAGTRTGMNWGQGTQVTVSS”: the “polyreactivity (PSR sort gate)” value was “high polyreactivity”.
With “QVQLVESGGGLVQAGGSLRLSCAASGLTFIKYTMGWSRQAPGKERELVATIRASTGSTYYADSVKGRFTISRDNAKNTVYLQMNSLKPEDTAVYYCATRSYPPYYGLYGGRAYNYWGQGTQVTVSS” the entry was “high polyreactivity”.
For “QVQLVESGGGLVQAGGSLRLSCAASGLTFIPNAMGWYRQAPGKERELVAAISGTGGSTYYADSVKGRFTISRDNAKNTVYLQMNSLKPEDTAVYYCAARRRYKSGYWGQGTQVTVSS”, the “polyreactivity (PSR sort gate)” value is listed as “high polyreactivity”.
With “QVQLVESGGGLVQAGGSLRLSCAASGLTFISYDMGWYRQAPGKERELVAAISSGGVLPNYADSVKGRFTISRDNAKNTVYLQMNSLKPEDTAVYYCNADTPTWPLDYWGQGTQVTVSS” the entry was “low polyreactivity”; with “QVQLVESGGGLVQAGGSLRLSCAASGLTFKDNAMGWYRQAPGKERELVAAISKGGGSTFYADSVKGRFTISRDNAKNTVYLQMNSLKPEDTAVYYCNADVGYRGGEEDYWGQGTQVTVSS”, “low polyreactivity”.
With “QVQLVESGGGLVQAGGSLRLSCAASGLTFKKYAMGWYRQAPGKERELVAAISRGGSTNYADSVKGRFTISRDNAKNTVYLQMNSLKPDDTAVYYCAAEGYWHVYADYYLEDYYWGQGTQVTVSS” the entry was “high polyreactivity”; with “QVQLVESGGGLVQAGGSLRLSCAASGLTFKRYAMGWYRQAPGKERELVASITGNGGSTYYADSVKGRFTISRDNAKNTFYLQMNSLKPEDTAVYYCNVGYRGWSVNSWGQGTQVTVSS”, “high polyreactivity”.
“QVQLVESGGGLVQAGGSLRLSCAASGLTFKRYGMGWYIQAPGKERELVAAINWRGTSTYYADSVKGRFTISRDNAKNTVYLQMNSLKPEDTAVYYCAAVGPFYGPGEYWGQGTQVTVSS”: the “polyreactivity (PSR sort gate)” value is given as “high polyreactivity”.
On to “QVQLVESGGGLVQAGGSLRLSCAASGLTFKYYAMGWYRQAPGKERELVAAISASGGRTSYADSVKGRFTISRDNAKNTFYLQMNSLKPEDTAVYYCNADITSSGPKSDYWGQGTQVTVSS”, for which the “polyreactivity (PSR sort gate)” value is “high polyreactivity”.
In the case of “QVQLVESGGGLVQAGGSLRLSCAASGLTFKYYAMGWYRQAPGKERELVAAITSTGGRTYYADSVKGRFTISRDNAKNTVYLQMNSLKPEDTAFYYCAAYYVGSSKYDSWGQGTQVTVSS” it was “low polyreactivity”; in that of “QVQLVESGGGLVQAGGSLRLSCAASGLTFKYYAMGWYRQAPGKERELVAIISFGGGSTYYADSVKGRFTISRDNAKNTVYLQMNSLKPEDTAVYYCNARLLFKYGYWGQGTQVTVSS”, “high polyreactivity”.
With “QVQLVESGGGLVQAGGSLRLSCAASGLTFLFYAMGWYRQAPGKERELVASIRWSDGRTYYADSVKGRFTISRDNAKNTVYLQMNSLKPEDTAVYYCAVVPAYVYLNREYYWGQGTQVTVSS” the entry was “high polyreactivity”; with “QVQLVESGGGLVQAGGSLRLSCAASGLTFLNNAMGWYRQAPVKERELVAAISVGGSTNYADSVKGRFTISRDNAKNTVYLQMNSLKPEDTAVYYCAAVYTSASYGSWGQGTQVTVSS”, “low polyreactivity”.
With “QVQLVESGGGLVQAGGSLRLSCAASGLTFLYYAMGWYRQAPGKERELVASISRGSNTNYADSVKGRFTISRDNAKNTVYLQMNSLKPEDTAVYYCAVDRRPYSGHGYDYWGQGTQVTVSS”, the “polyreactivity (PSR sort gate)” value is given as “high polyreactivity”.
In the case of “QVQLVESGGGLVQAGGSLRLSCAASGLTFNRYAMGCYRQAPGKEREFVAAISVRSGSTYYADSVKGRFTISRDNAKNTVYLQMNSLKPEDTAVYYCAAKIRKDYSIQGYDYWGQGTQVTVSS” it was “high polyreactivity”; in that of “QVQLVESGGGLVQAGGSLRLSCAASGLTFNYYAMGWSRPAPGKERELVAAISSDGRTDYADSVKGRFTISRDNAKNTVYLQMNSLKPEDTAVSYCAASWYRWGKSWRQYDYWGQGTQVTVSL”, “low polyreactivity”.
On to “QVQLVESGGGLVQAGGSLRLSCAASGLTFPHNAMGWYRQAPGKERELVAAITSSGGSTYYADSVKGRFTISRDNAKNTVYIQMNSLKPEDTAVYYCAAKRKPRPSYRYGYWGQGTQVTVSS”, for which the “polyreactivity (PSR sort gate)” value is “high polyreactivity”.
With “QVQLVESGGGLVQAGGSLRLSCAASGLTFPIYAMGWYRQAPGKEREFVAVNTTSGGSTYYADSVKGRFTISRDNAKNTVYLQMNILKPEDTAVYYCNARPEYTYWPGYIYWGEGTQVTVSS”, the “polyreactivity (PSR sort gate)” value is reported as “high polyreactivity”.
In the case of “QVQLVESGGGLVQAGGSLRLSCAASGLTFPNNGMGWYRQAPGKERELVAAIRSSGGSTYYADSVKGRFTISRDNAKNTVYLQMNSLKPEDTAVYYCNARRRGGYVGRPRYPVAAYDYWGQGTQVTVSS” it was “low polyreactivity”.
In the case of “QVQLVESGGGLVQAGGSLRLSCAASGLTFPPNAMGWYRQAPGKEREFVAVISSGGGSTYYADSVKGRFTISRDNAKNTVYLQMNSLKPEDTAVYYCNTYYWYSGSPYDYWGQGTQVTVSS”, the “polyreactivity (PSR sort gate)” value was “low polyreactivity”.
For “QVQLVESGGGLVQAGGSLRLSCAASGLTFPQYAMGWYRQAPGKERELVAAISKTGGSTYYADSVKGRFTISRDNAKNTVYLQMNSLKPEDTAVYYCAAVESGDRGQRINYWGQGTQVTVAS”, the “polyreactivity (PSR sort gate)” value is listed as “high polyreactivity”.
Regarding “QVQLVESGGGLVQAGGSLRLSCAASGLTFPRYAMGWYRQAPGIERELVAAISYRGSRTYYADSVKGRFTISRDNAKNTVYLQMNSLKPEDSAVYYCNKVRPGYGVTYLVGYWGQGTQVTVSS”, the “polyreactivity (PSR sort gate)” value is on record as “high polyreactivity”.
In the case of “QVQLVESGGGLVQAGGSLRLSCAASGLTFPSNAMGWYRPAPGKERELVAAISKRGGRTYYADSVKGRFTISRDNAKNTVYLQMNSLKPEDTAVYYCATPYAYPGTVQYAGYNYWGQGTQVTVSS” it was “high polyreactivity”; in that of “QVQLVESGGGLVQAGGSLRLSCAASGLTFPWYAMGWYRQAPGKERELVAGISWSGGSTYYADSVKGRFTISRDNAKNTVYLQMNSLKPEDTAVYYCAARVWYYDYWGQGTQVTVSS”, “high polyreactivity”; in that of “QVQLVESGGGLVQAGGSLRLSCAASGLTFPYYAMGWYRQAPGKERELVAGISDSGDSTYYADSVKGRFTISRDNAKNTVYLQMNSLKPEDTAVYYCNAYFRYSYDYWGQGTQVTVSS”, “high polyreactivity”.
For “QVQLVESGGGLVQAGGSLRLSCAASGLTFQGYAMGWYRQAPGKERELVAAISGSGGSTYYADSVKGRFTISRDNAKNTVYLQMNSLKPEDTAVYYCAADDSYYGIDYGYWGQGTQVTVSS”, the “polyreactivity (PSR sort gate)” value is listed as “low polyreactivity”.
In the case of “QVQLVESGGGLVQAGGSLRLSCAASGLTFRANAMGWYRQAPGKERELVAAISWRGGGTYYADSVKGRFTISRDNAKNTVYLQMNSLKPEDTAVYYCDAKTQNAYYWGQGTQVTVSS”, the “polyreactivity (PSR sort gate)” value was “low polyreactivity”.
With “QVQLVESGGGLVQAGGSLRLSCAASGLTFRAYAMGWYRLAPGKERELVAAITWSGTRTYYADSVKGRFTISRDNAKNTVYLQMNSLKPEDTAVYYCARGHTKVKYDYWGQGTQVTVSS” the entry was “low polyreactivity”; with “QVQLVESGGGLVQAGGSLRLSCAASGLTFRDNAMGWYRQAPGTERELVATMNSGGSTDYADSVKGRFTISRHNAKNTVYLQMNSLKPEDTAVYYCAVYREYYDRGWYSIFYWYDYWGQGTQVTVSS”, “low polyreactivity”; with “QVQLVESGGGLVQAGGSLRLSCAASGLTFRGYAMGWYRQAPGKERELVAAITSSAGRTYYADSVKGRFTISRDNAKNTVYLQLNSLKQEDTAVYYCAAAHSYTTRWGYYKFNYWGQGTKVTVSS”, “high polyreactivity”.
With “QVQLVESGGGLVQAGGSLRLSCAASGLTFRGYTMGWYRQAPGKERELVARITYSGGSTYYADSVKGRFTISRDNAKNTVYLQMNSLKPEDTAVYYCAKEIWRHWTGDYWGQGTQVTVSS” the entry was “high polyreactivity”; with “QVQLVESGGGLVQAGGSLRLSCAASGLTFRPNAMGWYRQAPGKERELVAAITWRGGRTYYADSVKGRFTISRDNAKNTVYLQMNSLKPEDTAVYYCAADSPYRGRPGPLNYGGDYWGQGTQVTVSS”, “high polyreactivity”.
For the sequence “QVQLVESGGGLVQAGGSLRLSCAASGLTFRSYAMGWYRPAPGKEREFVAAITGSGDTTYYADSVKGRFTISRDNAKNTVYLQMNSLKPEDTAVYYCNADRDYLWITLYEYWGQGTQVTVSS”, the “polyreactivity (PSR sort gate)” value is recorded as “high polyreactivity”.
For the sequence “QVQLVESGGGLVQAGGSLRLSCAASGLTFRWYAMGWYRQAPGKERELVAAISWSGGSTYYADSVKGRFTISRDNAKNTVYLQMNSLKPEDTAVDYCAASYYADRSKAYDYWGQGTQLTVSS”, the “polyreactivity (PSR sort gate)” value is “high polyreactivity”.

Values taken from the nanobody polyreactivity screen of Harvey et al. (2022).
